Results reported in patent US20260201038A1 (CELLABMED, published 2026).

Assays:
[1] = target: B7-H3 on human cancer cells (human) (UniProt Q5ZPR3); assay: flow cytometry on HepG2K liver cancer cells; control (secondary antibody only) < 20%
B7-H4 = target: T1, B7-H4 (UniProt Q7Z7D3 25-258, limits assumed); assay: indirect ELISA, B7-H4 coated at 1 ug/mL, absorbance at 450 nm
T1 sequence (looked up): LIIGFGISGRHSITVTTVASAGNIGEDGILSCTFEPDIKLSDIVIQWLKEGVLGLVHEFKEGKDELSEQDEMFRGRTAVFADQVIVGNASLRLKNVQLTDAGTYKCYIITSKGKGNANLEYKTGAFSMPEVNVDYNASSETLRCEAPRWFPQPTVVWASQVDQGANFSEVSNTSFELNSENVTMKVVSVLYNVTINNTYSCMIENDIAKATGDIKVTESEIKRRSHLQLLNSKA
Protocol: [The procedure below names another target; the source lists this target under the same test.] (§1) The binding ability of 2D IgG prepared in Example 2 for recombinant B7-H3 protein was investigated by indirect ELISA. For indirect ELISA, recombinant human 4lg B7-H3, recombinant human 2lg B7-H3 and recombinant mouse B7-H3 were diluted respectively to 1 μg/mL in 50 μL of PBS and adsorbed overnight onto a 96-well immunoplate (Corning, USA) by storing at 4° C. After reaction with a buffer solution containing 3% bovine serum albumin at room temperature for 1 hour, followed by washing 3 times with a buffer solution containing 0.5% Tween 20, each well was treated with 50 μL of the antibodies diluted serially (0.0001, 0.0003, 0.001, 0.003, 0.01, 0.03, 0.1, 0.3, 1, 3 and 10 nM). For antigen-antibody binding, the mixture was reacted at room temperature for 2 hours, and then washed 3 times with a buffer solution containing 0.5% Tween 20. After treating each well with 50 μL of anti-human immunoglobulin Fc-HRP antibodies (Jackson Immunoresearch, USA) diluted to 1:3,000, reaction was conducted at room temperature for 1 hour. […] As a result of measuring absorbance at 450 nm using a spectrophotometer (Biotek, USA), it was confirmed that 2D IgG binds to B7-H3, and the binding ability was in the order of 4lg B7-H3, 2lg B7-H3 and mouse B7-H3 (FIG. 2a). […]

[2] = target: human 2Ig B7-H3 expressed on Raji cells (human) (UniProt Q5ZPR3); assay: flow cytometry on Raji cells expressing 2Ig B7-H3; the vector control Raji cells show < 2%
B7-1 = target: T2, B7-1 (UniProt P33681 35-242); assay: indirect ELISA, B7-1 coated at 1 ug/mL, absorbance at 450 nm
T2 sequence (looked up): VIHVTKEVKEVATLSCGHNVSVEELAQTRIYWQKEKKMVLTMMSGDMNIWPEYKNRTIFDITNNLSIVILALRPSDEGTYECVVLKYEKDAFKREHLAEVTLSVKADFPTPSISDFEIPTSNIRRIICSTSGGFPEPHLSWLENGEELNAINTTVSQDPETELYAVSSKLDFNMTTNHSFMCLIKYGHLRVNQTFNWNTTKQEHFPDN
Protocol: [The procedure below names another target; the source lists this target under the same test.] as §1

[3] = target: B7-H3 on human cancer cells (human) (UniProt Q5ZPR3); assay: flow cytometry on U251 brain tumor cells; control (secondary antibody only) < 10%
[4] = target: B7-H3 on human cancer cells (human) (UniProt Q5ZPR3); assay: flow cytometry on MDA-MB-231 breast cancer cells; control (secondary antibody only) < 5%
[5] = target: B7-H3 on human cancer cells (human) (UniProt Q5ZPR3); assay: flow cytometry on HCT116 colorectal cancer cells; control (secondary antibody only) < 25%
B7-2 = target: T3, B7-2 (UniProt P42081 24-247, limits assumed); assay: indirect ELISA, B7-2 coated at 1 ug/mL, absorbance at 450 nm
T3 sequence (looked up): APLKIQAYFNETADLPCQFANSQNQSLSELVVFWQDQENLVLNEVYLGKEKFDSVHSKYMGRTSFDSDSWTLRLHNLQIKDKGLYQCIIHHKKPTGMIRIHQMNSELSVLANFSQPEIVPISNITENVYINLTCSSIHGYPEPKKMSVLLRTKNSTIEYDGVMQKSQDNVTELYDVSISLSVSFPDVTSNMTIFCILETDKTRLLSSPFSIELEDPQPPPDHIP
Protocol: [The procedure below names another target; the source lists this target under the same test.] as §1

[6] = target: B7-H3 on human cancer cells (human) (UniProt Q5ZPR3); assay: flow cytometry on A172 brain tumor cells; control (secondary antibody only) < 25%
[7] = target: T4, …; assay: peptide microarray, 15-mers of human 4Ig B7-H3; panel Ig-like-V type 1
T4 sequence (peptide): EVQVPEDPVVALVGT

[8] = target: B7-H3 on human cancer cells (human) (UniProt Q5ZPR3); assay: cell-based or functional assay
[9] = target: B7-H3 on human cancer cells (human) (UniProt Q5ZPR3); assay: flow cytometry on SK-BR-3 breast cancer cells; control (secondary antibody only) < 5%
[10] = target: B7-H3 on human cancer cells (human) (UniProt Q5ZPR3); assay: flow cytometry on U87 brain tumor cells; control (secondary antibody only) < 10%
[11] = target: B7-H3 on human cancer cells (human) (UniProt Q5ZPR3); assay: flow cytometry on A549 lung cancer cells; control (secondary antibody only) < 5%
[12] = target: B7-H3 on human cancer cells (human) (UniProt Q5ZPR3); assay: flow cytometry on PC-3 prostate cancer cells; control (secondary antibody only) < 20%

human 2Ig B7-H3 expressed on Raji cells (human), sequence (Q5ZPR3 other isoform, or with tags, fused parts or gaps, form in doubt): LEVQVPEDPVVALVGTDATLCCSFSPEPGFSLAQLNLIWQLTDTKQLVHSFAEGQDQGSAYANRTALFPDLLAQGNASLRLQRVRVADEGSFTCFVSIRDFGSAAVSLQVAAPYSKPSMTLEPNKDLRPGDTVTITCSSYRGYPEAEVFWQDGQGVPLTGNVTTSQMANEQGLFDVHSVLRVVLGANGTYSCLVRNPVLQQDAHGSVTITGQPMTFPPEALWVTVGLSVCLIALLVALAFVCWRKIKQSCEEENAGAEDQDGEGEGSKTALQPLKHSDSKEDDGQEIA

% of cells in the positive gate [1]: > 95%
binding result (B7-H4): no binding (tested: 10 nM)
% of cells in the positive gate (P3) [2]: > 40%
binding result (B7-1): no binding (tested: 10 nM)
% of cells in the positive gate [3]: > 95%
% of cells in the positive gate [4]: > 95%
% of cells in the positive gate [5]: > 95%
binding result (B7-2): no binding (tested: 10 nM)
% of cells in the positive gate [6]: > 95%
fluorescence intensity of the peptide spot [7]: 16
% of cells in the positive gate [9]: > 35%
% of cells in the positive gate [10]: > 95%
% of cells in the positive gate [11]: > 95%
% of cells in the positive gate [12]: > 95%
B1: G2D IgG (antibody, V domains shown)
VH: QVQLVESGGGLVQPGGSLRLSCSASGFDFSSYPMVWVRQAPGKGLEYVSSINSGGSWTGYGAAVKGRATISRDNSKNTLYLQMNSLRAEDTATYYCARAYGAATIDAWGQGTTVTVSS
VL: SYELTQPPSVSVSPGQTARITCSGGSIGYGWYQQKAPGQAPVTVIYYNDRRPSGIPERFSGSKSGTTNTLTISGVQAEDEADYYCGSADSSSTYTGIFGGGTKLTVL
notes: The back-substitutions (L46T, S66K, V71N in VL); also called humanized 2D; G2D antibody
T cell-mediated A549 cell-killing effect (GFP fluorescence of A549 cells after 48 h co-culture with activated PBMCs; negative control group = 100) [8]: 69.3
T cell-mediated cancer cell-killing effect as compared to the negative control group [8]: 30%
